In patent US20150147270A1:

Assays:
[1] = target: mouse F4/80 receptor expressed on macrophages (RAW 264.7 cells) (mouse) (UniProt Q61549); experiment: SPR (BI-2000), Fab'-covered NPs on a carboxydextran gold chip, RAW 264.7 cells injected at 7.5k cells/mL
[2] = target: mouse F4/80 receptor expressed on macrophages (RAW 264.7 cells) (mouse) (UniProt Q61549); experiment: cell-based or functional assay
[3] = target: mouse F4/80 receptor expressed on macrophages (RAW 264.7 cells) (mouse) (UniProt Q61549); experiment: SPR (BI-2000), Fab'-covered NPs on a carboxydextran gold chip, RAW 264.7 cells injected at 2.5k cells/mL
[4] = target: mouse F4/80 receptor expressed on macrophages (RAW 264.7 cells) (mouse) (UniProt Q61549); experiment: SPR (BI-2000), Fab'-covered NPs on a carboxydextran gold chip, RAW 264.7 cells injected at 5k cells/mL
[5] = target: mouse F4/80 receptor expressed on macrophages (RAW 264.7 cells) (mouse) (UniProt Q61549); experiment: SPR (BI-2000), Fab'-covered NPs on a carboxydextran gold chip, RAW 264.7 cells injected at 10k cells/mL
[6] = target: mouse F4/80 receptor expressed on macrophages (RAW 264.7 cells) (mouse) (UniProt Q61549); experiment: SPR, antibody-covered NPs coated on a gold chip, Raw 264.7 cells injected

Sequence of UniProt Q61549 (Q61549 28-931): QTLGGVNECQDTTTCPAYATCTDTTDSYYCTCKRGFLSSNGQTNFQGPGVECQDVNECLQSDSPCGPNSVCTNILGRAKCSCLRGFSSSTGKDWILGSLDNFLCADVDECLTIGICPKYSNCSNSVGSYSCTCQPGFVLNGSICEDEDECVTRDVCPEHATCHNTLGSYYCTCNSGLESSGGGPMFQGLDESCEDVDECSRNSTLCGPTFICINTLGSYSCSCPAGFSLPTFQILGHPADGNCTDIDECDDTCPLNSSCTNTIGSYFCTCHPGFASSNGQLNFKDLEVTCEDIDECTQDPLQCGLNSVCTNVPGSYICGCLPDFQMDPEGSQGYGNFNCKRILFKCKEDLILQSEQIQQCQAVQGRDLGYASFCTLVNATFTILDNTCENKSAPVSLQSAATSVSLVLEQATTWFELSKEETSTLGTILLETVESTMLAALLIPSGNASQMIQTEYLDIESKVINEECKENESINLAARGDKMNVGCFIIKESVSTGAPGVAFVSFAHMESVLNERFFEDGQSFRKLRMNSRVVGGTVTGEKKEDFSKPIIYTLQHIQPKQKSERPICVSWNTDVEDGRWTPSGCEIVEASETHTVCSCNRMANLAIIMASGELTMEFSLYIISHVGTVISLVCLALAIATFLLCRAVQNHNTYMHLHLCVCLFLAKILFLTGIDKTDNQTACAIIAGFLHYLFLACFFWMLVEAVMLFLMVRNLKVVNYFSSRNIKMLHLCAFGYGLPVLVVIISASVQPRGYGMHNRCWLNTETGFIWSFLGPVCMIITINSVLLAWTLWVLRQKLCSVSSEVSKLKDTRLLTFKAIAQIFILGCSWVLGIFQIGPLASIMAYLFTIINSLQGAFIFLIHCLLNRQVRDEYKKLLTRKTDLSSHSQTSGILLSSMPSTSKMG

Question: “Fab' fragment of the F4/80 antibody covalently attached to PLA-PEG nanoparticles” was tested. Which resonance angle deviation [1] did it give?
Answer: Its resonance angle deviation is 33 mDeg.

Question: And the average fluorescent intensity per unit of surface area of RAW 264.7 cells exposed to NPs loaded with FITC-tagged siRNA (15 minutes, 500 ug/mL); non-coated NPs gave 10279 AU/um^2 [2]?
Answer: The average fluorescent intensity per unit of surface area of RAW 264.7 cells exposed to NPs loaded with FITC-tagged siRNA (15 minutes, 500 ug/mL); non-coated NPs gave 10279 AU/um^2 was 51300 AU/µm^2.

Question: And the percent of colonic MPs (CD11c(-)CD11b(+)F4/80(+)) with positive FITC signals by flow cytometry after gavage of DSS-treated mice with NPs loaded with FITC-tagged siRNA; non-coated NPs gave 19% [2]?
Answer: The percent of colonic MPs (CD11c(-)CD11b(+)F4/80(+)) with positive FITC signals by flow cytometry after gavage of DSS-treated mice with NPs loaded with FITC-tagged siRNA; non-coated NPs gave 19% was 28%.

Question: And the resonance angle deviation [3]?
Answer: Its resonance angle deviation is 13 mDeg.

Question: And the resonance angle deviation [4]?
Answer: Its resonance angle deviation is 17 mDeg.

Question: And the resonance angle deviation [5]?
Answer: Its resonance angle deviation is 42 mDeg.

Question: For “mouse F4/80 antibody grafted onto maleimide-polyethyleneglycol-poly(lactic acid) nanoparticles”, which binding coefficient [6] is on record?
Answer: The binding coefficient was 50.
